Reference: patent publication US20250276077A1 (IMMUNOME, published 2025)

Molecular target: Human EphA2 (ephrin receptor A2) on cells (human, UniProt P29317 25-976)
Assay: cell-based or functional assay

Human EphA2 (ephrin receptor A2) on cells, sequence (P29317 25-976): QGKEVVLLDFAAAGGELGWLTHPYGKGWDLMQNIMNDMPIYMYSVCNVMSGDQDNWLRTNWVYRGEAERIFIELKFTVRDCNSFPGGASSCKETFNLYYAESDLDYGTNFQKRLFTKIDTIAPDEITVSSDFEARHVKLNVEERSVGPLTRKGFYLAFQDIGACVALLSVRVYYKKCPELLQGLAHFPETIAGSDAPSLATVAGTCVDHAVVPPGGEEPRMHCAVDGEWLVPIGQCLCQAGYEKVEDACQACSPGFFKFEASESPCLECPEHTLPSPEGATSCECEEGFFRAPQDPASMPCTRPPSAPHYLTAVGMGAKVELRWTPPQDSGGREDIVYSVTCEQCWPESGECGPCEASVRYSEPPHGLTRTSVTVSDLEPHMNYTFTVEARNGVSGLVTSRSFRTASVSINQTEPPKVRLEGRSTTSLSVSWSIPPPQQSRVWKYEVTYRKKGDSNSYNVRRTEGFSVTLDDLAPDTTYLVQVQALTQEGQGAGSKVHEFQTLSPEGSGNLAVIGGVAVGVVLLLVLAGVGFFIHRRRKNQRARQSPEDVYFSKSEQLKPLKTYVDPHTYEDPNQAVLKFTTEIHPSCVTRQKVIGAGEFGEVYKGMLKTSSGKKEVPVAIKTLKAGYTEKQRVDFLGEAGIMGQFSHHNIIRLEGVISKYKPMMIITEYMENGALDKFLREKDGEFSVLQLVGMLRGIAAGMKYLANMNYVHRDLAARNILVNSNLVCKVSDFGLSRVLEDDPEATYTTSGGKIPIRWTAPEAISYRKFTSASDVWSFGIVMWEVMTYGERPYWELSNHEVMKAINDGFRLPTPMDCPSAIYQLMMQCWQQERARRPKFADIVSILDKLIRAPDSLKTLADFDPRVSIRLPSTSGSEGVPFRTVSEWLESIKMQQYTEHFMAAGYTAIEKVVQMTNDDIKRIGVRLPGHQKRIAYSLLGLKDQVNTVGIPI

ADCC - EC50 (nM), Trial 1, A549	ADCC - EC50 (nM), Trial 2, A549	Binder
0.15 nM	–	AB-010693 (antibody, V domains shown) VH: QVQLQQWGAGLLKPSETLSLTCAVYGGSFSGYYWSWIRQPPGKGLEWIGEINHRGSINYNNYNPSLKSRVTISVDTSKNQFSLKLSSVTAADTAVYYCAKPLRPHCINGVCYSGDAFDIWGQGTMVTVAS VL: SYVLTQPPSVSVAPGQTARITCGGNNIGYKNVHWYQQKPGQAPVLVVYDDSDRPSGIPERFSGSNSGNTATLTISRVEAGDEADYYCQVWDSSSDHVVFGGGTKLTVL
1.9 nM	–	AB-010696 (antibody, V domains shown) VH: QVQLQQWGAGLLKPSETLSLTCAVYGGSFSGYYWSWIRQPPGKGLEWIGEINHRGSINYNNYNPSLKSRVTISVDTSKNQFSLKLSSVTAADTAVYYCAKPLRPHCINGVCYSGDAFDIWGQGTMVTVAS VL: SYVLTQPPSVSVAPGQTARITCGGNNIGSMNVHWYQQKPGQAPVLVVYDDSDRPSGIPERFSGSNSGNTATLTISRVEAGDEADYYCQVWDSSSDHVVFGGGTKLTVL
0.57 nM	–	AB-010662 (antibody, V domains shown) VH: QVQLQQWGAGLLKPSETLSLTCAVYGGSFSDYYWSWIRQPPGKGLEWIGEINHRGSINYNNYNPSLKSRVTISVDTSKNQFSLKLSSVTAADTAVYYCAKPLRPHCTNGVCYSGDAFDIWGQGTMVTVAS VL: SYVLTQPPSVSVAPGQTARITCRGNNIGYKNVHWYQQKPGQAPVLVVYDDSDRPSGIPEQFSGSNSGNTATLTISRVEAGDEADYYCQVWDSSSDHVVFGGGTKLTVL
0.54 nM	–	AB-010664 (antibody, V domains shown) VH: QVQLQQWGAGLLKPSETLSLTCAVYGGSFSDYYWSWIRQPPGKGLEWIGEINHRGSINYNNYNPSLKSRVTISVDTSKNQFSLKLSSVTAADTAVYYCAKPLRPHCTNGVCYSGDAFDIWGQGTMVTVAS VL: SYVLTQPPSVSVAPGQTARITCRGNNIGSKNVHWYQQKPGQAPVLVVYDDSDRPSGIPEQFSGSNSGNTATLTISRVEAGDEADYYCQVWDHSSDHVVFGGGTKLTVL
0.3 nM	–	AB-010697 (antibody, V domains shown) VH: QVQLQQWGAGLLKPSETLSLTCAVYGGSFSGYYWSWIRQPPGKGLEWIGEINHRGSINYNNYNPSLKSRVTISVDTSKNQFSLKLSSVTAADTAVYYCAKPLRPHCTNGVCYSGDAFDIWGQGTMVTVAS VL: SYVLTQPPSVSVAPGQTARITCGGNNIGSMNVHWYQQKPGQAPVLVVYDDSDRPSGIPERFSGSNSGNTATLTISRVEAGDEADYYCQVWDHSSDHVVFGGGTKLTVL
~0.23 nM	0.14 nM	AB-010665 (antibody, V domains shown) VH: QVQLQQWGAGLLKPSETLSLTCAVYGGSFSDYYWSWIRQPPGKGLEWIGEINHRGSINYNNYNPSLKSRVTISVDTSKNQFSLKLSSVTAADTAVYYCAKPLRPHCINGVCYSGDAFDIWGQGTMVTVAS VL: SYVLTQPPSVSVAPGQTARITCGGNNIGYKNVHWYQQKPGQAPVLVVYDDSDRPSGIPEQFSGSNSGNTATLTISRVEAGDEADYYCQVWDSSSDHVVFGGGTKLTVL
3.7 nM	–	AB-010668 (antibody, V domains shown) VH: QVQLQQWGAGLLKPSETLSLTCAVYGGSFSDYYWSWIRQPPGKGLEWIGEINHRGSINYNNYNPSLKSRVTISVDTSKNQFSLKLSSVTAADTAVYYCAKPLRPHCINGVCYSGDAFDIWGQGTMVTVAS VL: SYVLTQPPSVSVAPGQTARITCGGNNIGSMNVHWYQQKPGQAPVLVVYDDSDRPSGIPEQFSGSNSGNTATLTISRVEAGDEADYYCQVWDSSSDHVVFGGGTKLTVL
4.7 nM	–	AB-010663 (antibody, V domains shown) VH: QVQLQQWGAGLLKPSETLSLTCAVYGGSFSDYYWSWIRQPPGKGLEWIGEINHRGSINYNNYNPSLKSRVTISVDTSKNQFSLKLSSVTAADTAVYYCAKPLRPHCTNGVCYSGDAFDIWGQGTMVTVAS VL: SYVLTQPPSVSVAPGQTARITCRGNNIGSMNVHWYQQKPGQAPVLVVYDDSDRPSGIPEQFSGSNSGNTATLTISRVEAGDEADYYCQVWDSSSDHVVFGGGTKLTVL
0.36 nM	–	AB-010670 (antibody, V domains shown) VH: QVQLQQWGAGLLKPSETLSLTCAVYGGSFSDYYWSWIRQPPGKGLEWIGEINHRGSINYNNYNPSLKSRVTISVDTSKNQFSLKLSSVTAADTAVYYCAKPLRPHCINGVCYSGDAFDIWGQGTMVTVAS VL: SYVLTQPPSVSVAPGQTARITCGGNNIGSKNVHWYQQKPGQAPVLVVYDDSDRPSGIPEQFSGSNSGNTATLTISRVEAGDEADYYCQVWDHSSDHVVFGGGTKLTVL
0.23 nM	–	AB-010698 (antibody, V domains shown) VH: QVQLQQWGAGLLKPSETLSLTCAVYGGSFSGYYWSWIRQPPGKGLEWIGEINHRGSINYNNYNPSLKSRVTISVDTSKNQFSLKLSSVTAADTAVYYCAKPLRPHCINGVCYSGDAFDIWGQGTMVTVAS VL: SYVLTQPPSVSVAPGQTARITCGGNNIGSKNVHWYQQKPGQAPVLVVYDDSDRPSGIPERFSGSNSGNTATLTISRVEAGDEADYYCQVWDHSSDHVVFGGGTKLTVL
< 0.03 nM	0.012 nM	AB-010667 (antibody, V domains shown) VH: QVQLQQWGAGLLKPSETLSLTCAVYGGSFSDYYWSWIRQPPGKGLEWIGEINHRGSINYNNYNPSLKSRVTISVDTSKNQFSLKLSSVTAADTAVYYCAKPLRPHCTNGVCYSGDAFDIWGQGTMVTVAS VL: SYVLTQPPSVSVAPGQTARITCGGNNIGYKNVHWYQQKPGQAPVLVVYDDSDRPSGIPEQFSGSNSGNTATLTISRVEAGDEADYYCQVWDHSSDHVVFGGGTKLTVL
9.5 nM	–	AB-010700 (antibody, V domains shown) VH: QVQLQQWGAGLLKPSETLSLTCAVYGGSFSGYYWSWIRQPPGKGLEWIGEINHRGSINYNNYNPSLKSRVTISVDTSKNQFSLKLSSVTAADTAVYYCAKPLRPHCTNGVCYSGDAFDIWGQGTMVTVAS VL: SYVLTQPPSVSVAPGQTARITCGGNNIGSKNVHWYQQKPGQAPVLVVYDDSDRPSGIPERFSGSNSGNTATLTISRVEAGDEADYYCQVWDSRSDHVVFGGGTKLTVL
~0.19 nM	0.16 nM	AB-010666 (antibody, V domains shown) VH: QVQLQQWGAGLLKPSETLSLTCAVYGGSFSDYYWSWIRQPPGKGLEWIGEINHRGSINYNNYNPSLKSRVTISVDTSKNQFSLKLSSVTAADTAVYYCAKPLRPHCTNGVCYSGDAFDIWGQGTMVTVAS VL: SYVLTQPPSVSVAPGQTARITCGGNNIGYMNVHWYQQKPGQAPVLVVYDDSDRPSGIPEQFSGSNSGNTATLTISRVEAGDEADYYCQVWDSSSDHVVFGGGTKLTVL
0.14 nM	–	AB-010694 (antibody, V domains shown) VH: QVQLQQWGAGLLKPSETLSLTCAVYGGSFSGYYWSWIRQPPGKGLEWIGEINHRGSINYNNYNPSLKSRVTISVDTSKNQFSLKLSSVTAADTAVYYCAKPLRPHCTNGVCYSGDAFDIWGQGTMVTVAS VL: SYVLTQPPSVSVAPGQTARITCGGNNIGYMNVHWYQQKPGQAPVLVVYDDSDRPSGIPERFSGSNSGNTATLTISRVEAGDEADYYCQVWDSSSDHVVFGGGTKLTVL
5.7 nM	–	AB-010661 (antibody, V domains shown) VH: QVQLQQWGAGLLKPSETLSLTCAVYGGSFSDYYWSWIRQPPGKGLEWIGEINHRGSINYNNYNPSLKSRVTISVDTSKNQFSLKLSSVTAADTAVYYCAKPLRPHCINGVCYSGDAFDIWGQGTMVTVAS VL: SYVLTQPPSVSVAPGQTARITCRGNNIGSKNVHWYQQKPGQAPVLVVYDDSDRPSGIPEQFSGSNSGNTATLTISRVEAGDEADYYCQVWDSSSDHVVFGGGTKLTVL
~0.021 nM	0.0096 nM	AB-010695 (antibody, V domains shown) VH: QVQLQQWGAGLLKPSETLSLTCAVYGGSFSGYYWSWIRQPPGKGLEWIGEINHRGSINYNNYNPSLKSRVTISVDTSKNQFSLKLSSVTAADTAVYYCAKPLRPHCTNGVCYSGDAFDIWGQGTMVTVAS VL: SYVLTQPPSVSVAPGQTARITCGGNNIGYKNVHWYQQKPGQAPVLVVYDDSDRPSGIPERFSGSNSGNTATLTISRVEAGDEADYYCQVWDHSSDHVVFGGGTKLTVL
3 nM	–	AB-010701 (antibody, V domains shown) VH: QVQLQQWGAGLLKPSETLSLTCAVYGGSFSGYYWSWIRQPPGKGLEWIGEINHRGSINYNNYNPSLKSRVTISVDTSKNQFSLKLSSVTAADTAVYYCAKPLRPHCTNGVCYSGDAFDIWGQGTMVTVAS VL: SYVLTQPPSVSVAPGQTARITCGGNNIGSKNVHWYQQKPGQAPVLVVYDDSDRPSGIPERFSGSNSGNTATLTISRVEAGDEADYYCQVWDSESDHVVFGGGTKLTVL
< 0.03 nM	0.0064 nM	AB-010671 (antibody, V domains shown) VH: QVQLQQWGAGLLKPSETLSLTCAVYGGSFSDYYWSWIRQPPGKGLEWIGEINHRGSINYNNYNPSLKSRVTISVDTSKNQFSLKLSSVTAADTAVYYCAKPLRPHCINGVCYSGDAFDIWGQGTMVTVAS VL: SYVLTQPPSVSVAPGQTARITCGGNNIGYKNVHWYQQKPGQAPVLVVYDDSDRPSGIPEQFSGSNSGNTATLTISRVEAGDEADYYCQVWDHSSDHVVFGGGTKLTVL
0.065 nM	–	AB-010702 (antibody, V domains shown) VH: QVQLQQWGAGLLKPSETLSLTCAVYGGSFSGYYWSWIRQPPGKGLEWIGEINHRGSINYNNYNPSLKSRVTISVDTSKNQFSLKLSSVTAADTAVYYCAKPLRPHCTNGVCYSGDAFDIWGQGTMVTVAS VL: SYVLTQPPSVSVAPGQTARITCGGNNIGYKNVHWYQQKPGQAPVLVVYDDSDRPSGIPERFSGSNSGNTATLTISRVEAGDEADYYCQVWDSESDHVVFGGGTKLTVL
0.44 nM	–	AB-010669 (antibody, V domains shown) VH: QVQLQQWGAGLLKPSETLSLTCAVYGGSFSDYYWSWIRQPPGKGLEWIGEINHRGSINYNNYNPSLKSRVTISVDTSKNQFSLKLSSVTAADTAVYYCAKPLRPHCTNGVCYSGDAFDIWGQGTMVTVAS VL: SYVLTQPPSVSVAPGQTARITCGGNNIGSMNVHWYQQKPGQAPVLVVYDDSDRPSGIPEQFSGSNSGNTATLTISRVEAGDEADYYCQVWDHSSDHVVFGGGTKLTVL
